B1: N. benthamiana pseudo-attB Niben101Scf11415 (dsDNA)
DNA 1: CTAATATACATTGACAGTGTTAAAAAAAATCTATTAACGACAATATAGAGAAGAGAGTACTTACATGAATGACGTCTACTTTGACTCCGTCAATTCCAAC
DNA 2: GTTGGAATTGACGGAGTCAAAGTAGACGTCATTCATGTAAGTACTCTCTTCTCTATATTGTCGTTAATAGATTTTTTTTAACACTGTCAATGTATATTAG
B2: N. benthamiana pseudo-attB Niben101Scf04574 (dsDNA)
DNA 1: TAGGCTTACATTCCTGATGTACTATCCCATTATGCAATAATAAAGATGCAAAATAGGAAATGTCATTGACAGCTACGAGATCTATCTTTATTGATTCACT
DNA 2: AGTGAATCAATAAAGATAGATCTCGTAGCTGTCAATGACATTTCCTATTTTGCATCTTTATTATTGCATAATGGGATAGTACATCAGGAATGTAAGCCTA
B3: N. benthamiana pseudo-attB Niben101Scf13522 (dsDNA)
DNA 1: GGATAAGGGAGGGTTTAGATATTTTGAAAGGGTTAAGGGGTAAAATCACTAAGGGGGAATTAACAATGCACACTAGGGTTGCCTTAAAAGTGCCTATATA
DNA 2: TATATAGGCACTTTTAAGGCAACCCTAGTGTGCATTGTTAATTCCCCCTTAGTGATTTTACCCCTTAACCCTTTCAAAATATCTAAACCCTCCCTTATCC
B4: N. benthamiana pseudo-attB Niben101Scf04030 (dsDNA)
DNA 1: TTGCTGTCTTTTCATACTTTTCTAAGTTGAAAGTACTTGAAAGTACGACCAAGAAAATGATTATATTTGACACAGAAAATGCAAGGTACTTTGAATGTGA
DNA 2: TCACATTCAAAGTACCTTGCATTTTCTGTGTCAAATATAATCATTTTCTTGGTCGTACTTTCAAGTACTTTCAACTTAGAAAAGTATGAAAAGACAGCAA
B5: N. benthamiana pseudo-attB Niben101Scf00773 (dsDNA)
DNA 1: ACATGGAGCAATGATGGAGAAAAATGGTGGTCATTACTACTGAAGTTGTCAAAGCAAAGCTGTCAGGTAACATCAAATGATCTCTAAATCAATTAGTCTT
DNA 2: AAGACTAATTGATTTAGAGATCATTTGATGTTACCTGACAGCTTTGCTTTGACAACTTCAGTAGTAATGACCACCATTTTTCTCCATCATTGCTCCATGT
B6: N. benthamiana pseudo-attB Niben101Scf00732 (dsDNA)
DNA 1: not shown
DNA 2: not shown
B7: lettuce pseudo-attB 13364626 (dsDNA)
DNA 1: TGAATTTCTTATGAAGGTTACAACGCATCGTGGATTACAAGCAATTCTGTTTAGTCTGTTATGTTGTTGAATTTGAATGGATCTTGTCCTCAGTTACTCA
DNA 2: TGAGTAACTGAGGACAAGATCCATTCAAATTCAACAACATAACAGACTAAACAGAATTGCTTGTAATCCACGATGCGTTGTAACCTTCATAAGAAATTCA
B8: lettuce pseudo-attB 115327723 (dsDNA)
DNA 1: TATTTGTGATGTGACATGACAAATAATGATGTTACAATATTATGTACCTCTAAATGAGATCTAGCATTGAAGATTGCATGAATATTCTTGAGTGTGTTATT
DNA 2: AATAACACACTCAAGAATATTCATGCAATCTTCAATGCTAGATCTCATTTAGAGGTACATAATATTGTAACATCATTATTTGTCATGTCACATCACAAATA
B9: lettuce pseudo-attB 411877132 (dsDNA)
DNA 1: ATAAGTTTAGATCTTATTGAACTAGGCTTGTGGTGCTTGTTTAAGGCCATAAATCGCCTTATTCAAGCGACAAAAATGAGACGAATAGGTGGAGTCTTCA
DNA 2: TGAAGACTCCACCTATTCGTCTCATTTTTGTCGCTTGAATAAGGCGATTTATGGCCTTAAACAAGCACCACAAGCCTAGTTCAATAAGATCTAAACTTAT
B10: lettuce pseudo-attB 328302882 (dsDNA)
DNA 1: TCCGTCACAAATTGCATCACTACGACTAAGATCTTCATCAATGATTCTATTAAGGAGATTCTTACATTGAAGGAGAAGTTACATAAATTCTTTATTATTT
DNA 2: AAATAATAAAGAATTTATGTAACTTCTCCTTCAATGTAAGAATCTCCTTAATAGAATCATTGATGAAGATCTTAGTCGTAGTGATGCAATTTGTGACGGA
B11: lettuce pseudo-attB 310607752 (dsDNA)
DNA 1: CACAAAAAATTGACCATTTCTAGCAACTTCCTATGATACGTTGATACTTTCTAAACATTAATTACAATGACAAAATGAAGTCTACCAAATCATTCATAGA
DNA 2: TCTATGAATGATTTGGTAGACTTCATTTTGTCATTGTAATTAATGTTTAGAAAGTATCAACGTATCATAGGAAGTTGCTAGAAATGGTCAATTTTTTGTG
B12: lettuce pseudo-attB 207599470 (dsDNA)
DNA 1: CAATGGTGAATATAGTCCGGCGACCAACTCTGTCCACTATCAGCAACGATAAAAAGGTCATGCTAAGACCCACAAGCCCAGTCACCACTGCTGACATAAG
DNA 2: CTTATGTCAGCAGTGGTGACTGGGCTTGTGGGTCTTAGCATGACCTTTTTATCGTTGCTGATAGTGGACAGAGTTGGTCGCCGGACTATATTCACCATTG

T1 sequence (O32006 whole entry): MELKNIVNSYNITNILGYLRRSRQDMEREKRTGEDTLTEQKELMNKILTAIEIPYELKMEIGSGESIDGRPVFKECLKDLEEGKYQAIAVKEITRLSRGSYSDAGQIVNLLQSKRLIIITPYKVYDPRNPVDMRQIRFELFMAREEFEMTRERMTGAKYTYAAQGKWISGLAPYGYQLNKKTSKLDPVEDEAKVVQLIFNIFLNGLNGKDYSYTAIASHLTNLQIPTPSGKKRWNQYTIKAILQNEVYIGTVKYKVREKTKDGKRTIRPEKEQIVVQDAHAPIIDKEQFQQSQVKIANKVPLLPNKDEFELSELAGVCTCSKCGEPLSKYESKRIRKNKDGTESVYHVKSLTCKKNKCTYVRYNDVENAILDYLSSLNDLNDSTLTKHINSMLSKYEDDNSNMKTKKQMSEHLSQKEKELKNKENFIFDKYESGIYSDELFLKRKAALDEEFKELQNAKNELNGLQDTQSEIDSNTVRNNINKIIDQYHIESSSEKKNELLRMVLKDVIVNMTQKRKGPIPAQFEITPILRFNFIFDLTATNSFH

One data set concerns the target T1, SPβc2 serine recombinase (SPβc2-HA-NLS) (Bacillus subtilis phage SPβc2, UniProt O32006 SEQ:1-545). In words: cell_activity; partner attP vector. The note with it: tags: C-terminal HA and SV40 NLS. The procedure:
Wild tobacco relative Nicotiana benthamiana (Benthi) events were generated through co-transfection of a SPβc2 expression vector (or control filler vector: CAT) plus a target integration vector containing GFP, NptII, and a SPβc2 attachment site (attP, attB, or site-less control). Colonies were regenerated in the presence of a kanamycin gradient to detect NptII and the presence of GFP was determined through illumination with a blue “biolight” together with an appropriate filter (FIG. 1). […] Enhanced regeneration of transgenic colonies varied between 10 and 65 fold and was dependent on the Kanamycin concentration used for selection. […] Very few GFP-positive kanamycin-resistant colonies arose from the attB/SPβc2 or Siteless/SPβc2 conditions, indicating a dependence on the attP site for interaction with plant pseudo-attB sites. […] A total of 126 plants from 91 unique calli events were regenerated, transplanted into soil, and carried forward to seed collection (Table 7).
To determine whether any of the sites identified by GenomeWalker were preferentially utilized for integration by the SPβc2 recombinase, 64 attP/SPβc2 regenerated events were screened by end-point PCR for amplification of the left (35S side) gDNA:insert border.
On to B1, for which the activity amounted to 1 integration events.
Consider B2, for which the activity is 1 integration events.
In the case of B3, the activity amounted to 2 integration events.
Same read-out and setting: to B4 belongs 2 integration events; to B5, 1 integration events.
Regarding B6, the activity is 1 integration events.

The target in the next data set is T1, SPβc2 serine recombinase (SPβc2-HA-NLS). Nature of the data set: cell_activity; partner attP vector. The note with it: tags: C-terminal HA and SV40 NLS. This is another data set of the same source. From the text:
In addition to the 20 GFP-positive kanamycin-resistant regenerated events, 35 GFP-positive kanamycin-resistant calli were also sampled for gDNA extraction and insertion analysis. These events were not analyzed by qPCR for NPT-II copy number due to the likelihood of circular non-integrated plasmid being present in the callus tissue. The 55 unique GFP-positive kanamycin-resistant attP/SPβc2 events were screened by end-point PCR for the right gDNA:insert junction (SpecR side) for each of the 7 previously identified integration sites. Four of the 7 insertion sites were identified in multiple unique events with one of the integration sites found in 8 events including the 2 events in which it was identified by next-gen sequencing (Table 13). Sanger sequencing of amplicons from both left and right gDNA:insert borders for 3 of the events with integrations in site 7493878 identified a lbp difference in the insert:gDNA recombination site compared to the originally identified borders (FIG. 20 C-E). As was done in Benthi, the population was also screened for presence of the recombinase expression construct (ID363); it was found in 2 out of the 20 regenerated attP/SPβc2 events (data not shown).
Regarding B7, the activity was found to be 1 integration events.
As to B8, the activity amounted to 1 integration events.
Take B9: the activity is 2 integration events.
With B10, the activity was found to be 2 integration events.
The same measure, in the same setting: to B11 belongs 1 integration events.
Same read-out and setting: as for B12, the figure is 7 integration events.

The values above are taken from patent publication US20210395761, “SERINE RECOMBINASES MEDIATING STABLE INTEGRATION INTO PLANT GENOMES” (GREENVENUS, LLC, published 2021).
